Positions count from the first letter of the chain named. Names and notes keep the numbering of the source.
B1: CE115HA000/GLS3000 K50L one-arm antibody (antibody, human IgG1, kappa, L234A L235A, N297A, name in Kabat numbering)
heavy: QVQLVESGGGVVQPGRSLRLSCAASGFTFSNAWMHWVRQAPGKGLEWVAQIKAKSNNYATYYAESVKGRFTISRDDSKNSLYLQMNSLKTEDTAVYYCRYVHYGAYYGVDAWGQGTTVTVSSASTKGPSVFPLAPSSKSTSGGTAALGCLVKDYFPEPVTVSWNSGALTSGVHTFPAVLQSSGLYSLSSVVTVPSSSLGTQTYICNVNHKPSNTKVDKKVEPKSCDKTHTCPPCPAPEAAGGPSVFLFPPKPKDTLMISRTPEVTCVVVDVSHEDPEVKFNWYVDGVEVHNAKTKPREEQYASTYRVVSVLTVLHQDWLNGKEYKCKVSNKALPAPIEKTISKAKGQPREPQVYTLPPSRCELTKNQVSLSCAVKGFYPSDIAVEWESNGQPENNYKTTPPVLDSDGSFFLVSKLTVDKSRWQQGNVFSCSVMHEALHNHYTQKSLSLSPDYKDDDDK
chain: EPKSSDKTHTCPPCPAPELLGGPSVFLFPPKPKDTLMISRTPEVTCVVVDVSHEDPEVKFNWYVDGVEVHNAKTKPREEQYNSTYRVVSVLTVLHQDWLNGKEYKCKVSNKALPAPIEKTISKAKGQPREPQVCTLPPSRDELTKNQVSLWCLVKGFYPSDIAVEWESNGQPENNYKTTPPVLDSDGSFFLYSKLTVDKSRWQQGNVFSCSVMHEALHNRYTQKSLSLSP
light: DIVMTQSPLSLPVTPGEPASISCRSSQSLVHSNRNTYLHWYQQKPGQAPRLLIYLVSNRFSGVPDRFSGSGSGTDFTLKISRVEAEDVGVYYCGQGTQVPYTFGQGTKLEIKRTVAAPSVFIFPPSDEQLKSGTASVVCLLNNFYPREAKVQWKVDNALQSGNSQESVTEQDSKDSTYSLSSTLTLSKADYEKHKVYACEVTHQGLSSPVTKSFNRGEC
notes: one-arm IgG1
B2: CE115HA000/GLS3000 K107E one-arm antibody (antibody, human IgG1, kappa, L234A L235A, N297A, name in Kabat numbering)
heavy: B1 heavy
chain: B1 chain
light: B1 light with L55K, K112E
notes: one-arm IgG1
B3: CE115HA000/GLS3000 N53K one-arm antibody (antibody, human IgG1, kappa, L234A L235A, N297A, name in Kabat numbering)
heavy: B1 heavy
chain: B1 chain
light: B1 light with L55K, N58K
notes: one-arm IgG1
B4: CE115HA000/GLS3000 N53T one-arm antibody (antibody, human IgG1, kappa, L234A L235A, N297A, name in Kabat numbering)
heavy: B1 heavy
chain: B1 chain
light: B1 light with L55K, N58T
notes: one-arm IgG1
B5: CE115HA000/GLS3000 N53S one-arm antibody (antibody, human IgG1, kappa, L234A L235A, N297A, name in Kabat numbering)
heavy: B1 heavy
chain: B1 chain
light: B1 light with L55K, N58S
notes: one-arm IgG1
B6: CE115HA000/GLS3000 L33M one-arm antibody (antibody, human IgG1, kappa, L234A L235A, N297A, name in Kabat numbering)
heavy: B1 heavy
chain: B1 chain
light: B1 light with L38M, L55K
notes: one-arm IgG1
B7: CE115HA000/GLS3000 N53E one-arm antibody (antibody, human IgG1, kappa, L234A L235A, N297A, name in Kabat numbering)
heavy: B1 heavy
chain: B1 chain
light: B1 light with L55K, N58E
notes: one-arm IgG1
B8: CE115HA000/GLS3000 L33D one-arm antibody (antibody, human IgG1, kappa, L234A L235A, N297A, name in Kabat numbering)
heavy: B1 heavy
chain: B1 chain
light: B1 light with L38D, L55K
notes: one-arm IgG1
B9: CE115HA000/GLS3000 K50S one-arm antibody (antibody, human IgG1, kappa, L234A L235A, N297A, name in Kabat numbering)
heavy: B1 heavy
chain: B1 chain
light: B1 light with L55S
notes: one-arm IgG1
B10: CE115HA000/GLS3000 N53Y one-arm antibody (antibody, human IgG1, kappa, L234A L235A, N297A, name in Kabat numbering)
heavy: B1 heavy
chain: B1 chain
light: B1 light with L55K, N58Y
notes: one-arm IgG1
B11: CE115HA000/GLS3000 N53I one-arm antibody (antibody, human IgG1, kappa, L234A L235A, N297A, name in Kabat numbering)
heavy: B1 heavy
chain: B1 chain
light: B1 light with L55K, N58I
notes: one-arm IgG1
B12: CE115HA000/GLS3000 L33F one-arm antibody (antibody, human IgG1, kappa, L234A L235A, N297A, name in Kabat numbering)
heavy: B1 heavy
chain: B1 chain
light: B1 light with L38F, L55K
notes: one-arm IgG1
B13: CE115HA000/GLS3000 L33I one-arm antibody (antibody, human IgG1, kappa, L234A L235A, N297A, name in Kabat numbering)
heavy: B1 heavy
chain: B1 chain
light: B1 light with L38I, L55K
notes: one-arm IgG1
B14: CE115HA000/GLS3000 P95E one-arm antibody (antibody, human IgG1, kappa, L234A L235A, N297A, name in Kabat numbering)
heavy: B1 heavy
chain: B1 chain
light: B1 light with L55K, P100E
notes: one-arm IgG1
B15: CE115HA000/GLS3000 N53G one-arm antibody (antibody, human IgG1, kappa, L234A L235A, N297A, name in Kabat numbering)
heavy: B1 heavy
chain: B1 chain
light: B1 light with L55K, N58G
notes: one-arm IgG1
B16: CE115HA000/GLS3000 N53W one-arm antibody (antibody, human IgG1, kappa, L234A L235A, N297A, name in Kabat numbering)
heavy: B1 heavy
chain: B1 chain
light: B1 light with L55K, N58W
notes: one-arm IgG1
B17: CE115HA000/GLS3000 K50Y one-arm antibody (antibody, human IgG1, kappa, L234A L235A, N297A, name in Kabat numbering)
heavy: B1 heavy
chain: B1 chain
light: B1 light with L55Y
notes: one-arm IgG1
B18: CE115HA000/GLS3000 L33V one-arm antibody (antibody, human IgG1, kappa, L234A L235A, N297A, name in Kabat numbering)
heavy: B1 heavy
chain: B1 chain
light: B1 light with L38V, L55K
notes: one-arm IgG1
B19: CE115HA000/GLS3000 N53M one-arm antibody (antibody, human IgG1, kappa, L234A L235A, N297A, name in Kabat numbering)
heavy: B1 heavy
chain: B1 chain
light: B1 light with L55K, N58M
notes: one-arm IgG1
B20: CE115HA000/GLS3000 N53F one-arm antibody (antibody, human IgG1, kappa, L234A L235A, N297A, name in Kabat numbering)
heavy: B1 heavy
chain: B1 chain
light: B1 light with L55K, N58F
notes: one-arm IgG1
B21: CE115HA000/GLS3000 L33P one-arm antibody (antibody, human IgG1, kappa, L234A L235A, N297A, name in Kabat numbering)
heavy: B1 heavy
chain: B1 chain
light: B1 light with L38P, L55K
notes: one-arm IgG1
B22: CE115HA000/GLS3000 N53R one-arm antibody (antibody, human IgG1, kappa, L234A L235A, N297A, name in Kabat numbering)
heavy: B1 heavy
chain: B1 chain
light: B1 light with L55K, N58R
notes: one-arm IgG1
B23: CE115HA000/GLS3000 K50P one-arm antibody (antibody, human IgG1, kappa, L234A L235A, N297A, name in Kabat numbering)
heavy: B1 heavy
chain: B1 chain
light: B1 light with L55P
notes: one-arm IgG1
B24: CE115HA000/GLS3000 K50T one-arm antibody (antibody, human IgG1, kappa, L234A L235A, N297A, name in Kabat numbering)
heavy: B1 heavy
chain: B1 chain
light: B1 light with L55T
notes: one-arm IgG1
B25: CE115HA000/GLS3000 N53P one-arm antibody (antibody, human IgG1, kappa, L234A L235A, N297A, name in Kabat numbering)
heavy: B1 heavy
chain: B1 chain
light: B1 light with L55K, N58P
notes: one-arm IgG1
B26: CE115HA000/GLS3000 N53Q one-arm antibody (antibody, human IgG1, kappa, L234A L235A, N297A, name in Kabat numbering)
heavy: B1 heavy
chain: B1 chain
light: B1 light with L55K, N58Q
notes: one-arm IgG1
B27: CE115HA000/GLS3000 K50R one-arm antibody (antibody, human IgG1, kappa, L234A L235A, N297A, name in Kabat numbering)
heavy: B1 heavy
chain: B1 chain
light: B1 light with L55R
notes: one-arm IgG1
B28: CE115HA000/GLS3000 L33E one-arm antibody (antibody, human IgG1, kappa, L234A L235A, N297A, name in Kabat numbering)
heavy: B1 heavy
chain: B1 chain
light: B1 light with L38E, L55K
notes: one-arm IgG1
B29: CE115HA000/GLS3000 K50Q one-arm antibody (antibody, human IgG1, kappa, L234A L235A, N297A, name in Kabat numbering)
heavy: B1 heavy
chain: B1 chain
light: B1 light with L55Q
notes: one-arm IgG1
B30: CE115HA000/GLS3000 N53L one-arm antibody (antibody, human IgG1, kappa, L234A L235A, N297A, name in Kabat numbering)
heavy: B1 heavy
chain: B1 chain
light: B1 light with L55K, N58L
notes: one-arm IgG1
B31: CE115HA000/GLS3000 P95A one-arm antibody (antibody, human IgG1, kappa, L234A L235A, N297A, name in Kabat numbering)
heavy: B1 heavy
chain: B1 chain
light: B1 light with L55K, P100A
notes: one-arm IgG1
B32: CE115HA000/GLS3000 P95G one-arm antibody (antibody, human IgG1, kappa, L234A L235A, N297A, name in Kabat numbering)
heavy: B1 heavy
chain: B1 chain
light: B1 light with L55K, P100G
notes: one-arm IgG1
B33: CE115HA000/GLS3000 N53H one-arm antibody (antibody, human IgG1, kappa, L234A L235A, N297A, name in Kabat numbering)
heavy: B1 heavy
chain: B1 chain
light: B1 light with L55K, N58H
notes: one-arm IgG1
B34: CE115HA000/GLS3000 N53V one-arm antibody (antibody, human IgG1, kappa, L234A L235A, N297A, name in Kabat numbering)
heavy: B1 heavy
chain: B1 chain
light: B1 light with L55K, N58V
notes: one-arm IgG1
B35: CE115HA000/GLS3000 P95D one-arm antibody (antibody, human IgG1, kappa, L234A L235A, N297A, name in Kabat numbering)
heavy: B1 heavy
chain: B1 chain
light: B1 light with L55K, P100D
notes: one-arm IgG1

What follows are binders tested against T1, CD3 epsilon homodimer protein (UniProt P07766 23-126) (assay: SPR (Biacore T200), CD3e homodimer on CM4 chip, antibody as analyte; KD ratio vs unaltered GLS3000;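 note: CD3 epsilon homodimer amine-coupled to the sensor surface, antibodies injected as analyte at 25 °C with HBS-EP+ running buffer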).
T1 construct: also called CD3 (CD3 epsilon)
T1 sequence (P07766 23-126): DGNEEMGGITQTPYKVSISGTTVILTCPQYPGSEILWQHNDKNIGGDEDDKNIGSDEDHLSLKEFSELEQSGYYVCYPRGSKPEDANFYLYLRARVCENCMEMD

| KD ratio to GLS3000 [ratio] | Binder |
| --- | --- |
| 36.4 | B1 |
| 0.95 | B2 |
| 1.05 | B3 |
| 2.68 | B4 |
| 0.88 | B5 |
| 0.9 | B6 |
| 2.47 | B7 |
| 37.5 | B8 |
| 45.3 | B9 |
| 0.99 | B10 |
| 2.69 | B11 |
| 0.65 | B12 |
| 0.86 | B13 |
| 1.01 | B14 |
| 1.33 | B15 |
| 1.01 | B16 |
| 195 | B17 |
| 1.26 | B18 |

| KD ratio to GLS3000 [ratio] | Binder |
| --- | --- |
| 1.21 | B19 |
| 0.96 | B20 |
| 32.7 | B21 |
| 1.56 | B22 |
| 27.7 | B23 |
| 25.1 | B24 |
| 0.98 | B25 |
| 1.28 | B26 |
| 1.83 | B27 |
| 0.83 | B28 |
| 8.13 | B29 |
| 1.62 | B30 |
| 0.87 | B31 |
| 1.94 | B32 |
| 1.31 | B33 |
| 2.14 | B34 |
| 2.37 | B35 |

— patent publication US20240270846A1 (published 2024)
